Two proteins from publication PMC9000616 (Molecules, 2022) can be followed below.

This data set concerns the molecule itself. The data set is described as follows: AUC; sedimentation velocity, 20 °C, Rayleigh interference optics, c(s) analysis converted into c(M); AtDSEL at 3.0, 1.5 and 0.8 mg/mL; CaPLA1 at 1.1, 0.5 and 0.3 mg/mL.

B1: Capsicum annuum phospholipase A1 homolog (enzyme, UniProt A5YW95 1-397, looked up)
chain: MGSMAEKWEELSGKNNWEGLLNPLDLDLRKYIIQYGELAQATYDTFISERASKYAGASRYSMENFFTKVGLDPSKYHVTKFFYGTSSIPLPDAFMTRSLSREAWSKESNFMGYIAVATDEGKVALGRRDIVINWRGTLQVLEWVNDLQFLLVPAPKVFGDGGLLPLFHPLVHHGFHNIYTTENPRSQFNKTCVRDQVMEEVKRLVEEYKNEEVSITVTGHSLGASLATLNAVDIAFNGINKSSNGKEFPVTAFVFASPKVGDLNFHKAFSKLKHLHILRIHNLLDIVPKYPPVGYFDVGQELMIDTTKSPYVKPPGEVVSWHLLEPYLHGIAGTQGIGMTAGFKLEVNRDISLVNKQWMILKDEYCIPPLWWSEKHKGMVQQQDGSWLLQDRDDYEF
notes: CaPLA1, phospholipase A1 of hot pepper (Capsicum annuum), full length, UniProt A5YW95; A non-native Gly from the TEV site (ENLYFQG) is left at the N-terminus after cleavage; Homodimer by crystal structure and AUC; also called CaPLA1; source: E. coli BL21 (DE3), purified (Ni-NTA, TEV cleavage, Ni-NTA, SEC); not shown: His6, N-terminal, cleaved
By stoichiometry N is commonly meant a count of units in the complex or per binding partner. With B1, the “stoichiometry N” value was found to be 2.

B2: Arabidopsis thaliana DAD1-like seedling establishment-related lipase (enzyme, UniProt O49523 1-419, looked up)
chain: MKRKKKEEEEEKLIVTREFAKRWRDLSGQNHWKGMLQPLDQDLREYIIHYGEMAQAGYDTFNINTESQFAGASIYSRKDFFAKVGLEIAHPYTKYKVTKFIYATSDIHVPESFLLFPISREGWSKESNWMGYVAVTDDQGTALLGRRDIVVSWRGSVQPLEWVEDFEFGLVNAIKIFGERNDQVQIHQGWYSIYMSQDERSPFTKTNARDQVLREVGRLLEKYKDEEVSITICGHSLGAALATLSATDIVANGYNRPKSRPDKSCPVTAFVFASPRVGDSDFRKLFSGLEDIRVLRTRNLPDVIPIYPPIGYSEVGDEFPIDTRKSPYMKSPGNLATFHCLEGYLHGVAGTQGTNKADLFRLDVERAIGLVNKSVDGLKDECMVPGKWRVLKNKGMAQQDDGSWELVDHEIDDNEDLDF
notes: AtDSEL, phospholipase A1 of Arabidopsis thaliana, full length, UniProt O49523; A non-native Gly from the TEV site (ENLYFQG) is left at the N-terminus after cleavage; Homodimer by crystal structure and AUC; also called AtDSEL; source: E. coli BL21 (DE3), purified (Ni-NTA, TEV cleavage, Ni-NTA, SEC); not shown: His6, N-terminal, cleaved
Consider B2, for which the “stoichiometry N” value was 2.
